The target of assay [1] is T1, Nup85 C-terminally tagged with a tandem affinity purification (TAP) tag (budding yeast (endogenous), UniProt P46673 1-744).
T1 sequence (looked up): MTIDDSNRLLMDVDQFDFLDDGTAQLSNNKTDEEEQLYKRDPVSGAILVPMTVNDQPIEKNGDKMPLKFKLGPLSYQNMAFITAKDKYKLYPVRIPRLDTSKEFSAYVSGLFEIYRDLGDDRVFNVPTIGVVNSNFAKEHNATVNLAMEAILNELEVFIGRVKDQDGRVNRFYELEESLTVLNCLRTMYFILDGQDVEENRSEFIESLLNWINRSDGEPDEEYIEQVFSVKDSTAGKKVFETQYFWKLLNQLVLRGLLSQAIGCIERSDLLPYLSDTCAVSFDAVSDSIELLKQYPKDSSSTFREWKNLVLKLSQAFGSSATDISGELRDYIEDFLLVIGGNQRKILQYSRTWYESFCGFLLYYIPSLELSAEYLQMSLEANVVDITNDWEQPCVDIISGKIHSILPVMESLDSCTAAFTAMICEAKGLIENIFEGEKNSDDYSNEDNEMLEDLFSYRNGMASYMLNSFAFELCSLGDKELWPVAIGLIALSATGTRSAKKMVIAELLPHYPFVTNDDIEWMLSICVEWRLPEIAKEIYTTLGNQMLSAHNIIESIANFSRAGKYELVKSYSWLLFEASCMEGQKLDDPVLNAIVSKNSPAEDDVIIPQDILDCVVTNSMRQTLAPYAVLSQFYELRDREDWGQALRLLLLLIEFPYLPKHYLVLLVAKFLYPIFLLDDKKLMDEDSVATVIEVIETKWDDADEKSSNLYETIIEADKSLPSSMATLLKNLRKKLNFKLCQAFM
Put plainly: affinity purification with mass spectrometry.

The next assay deals with Nup84 (budding yeast (endogenous), UniProt P52891 1-726). The experiment in a line: negative-stain EM, random conical tilt 3D reconstruction.
Chain of Nup84 (P52891 whole entry): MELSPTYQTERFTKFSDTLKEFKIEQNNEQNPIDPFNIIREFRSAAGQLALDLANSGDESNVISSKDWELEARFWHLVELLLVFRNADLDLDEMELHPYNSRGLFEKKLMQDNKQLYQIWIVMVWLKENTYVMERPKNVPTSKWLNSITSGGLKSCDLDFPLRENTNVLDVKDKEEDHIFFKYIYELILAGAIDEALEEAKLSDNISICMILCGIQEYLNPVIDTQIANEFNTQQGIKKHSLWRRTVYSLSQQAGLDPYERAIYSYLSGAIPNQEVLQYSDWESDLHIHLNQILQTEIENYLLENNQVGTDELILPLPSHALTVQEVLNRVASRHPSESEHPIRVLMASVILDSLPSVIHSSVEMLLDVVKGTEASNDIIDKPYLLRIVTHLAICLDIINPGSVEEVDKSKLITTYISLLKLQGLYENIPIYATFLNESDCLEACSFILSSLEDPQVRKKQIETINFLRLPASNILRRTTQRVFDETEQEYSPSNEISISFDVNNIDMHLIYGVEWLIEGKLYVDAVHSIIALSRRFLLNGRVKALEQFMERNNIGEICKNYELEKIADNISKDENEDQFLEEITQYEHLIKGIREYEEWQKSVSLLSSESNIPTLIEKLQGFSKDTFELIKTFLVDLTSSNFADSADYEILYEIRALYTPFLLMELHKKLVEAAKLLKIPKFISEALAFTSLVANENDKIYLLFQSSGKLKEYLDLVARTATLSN

B1: Seh1 (natural protein, budding yeast (endogenous), UniProt P53011 1-349, looked up)
chain: MQPFDSGHDDLVHDVVYDFYGRHVATCSSDQHIKVFKLDKDTSNWELSDSWRAHDSSIVAIDWASPEYGRIIASASYDKTVKLWEEDPDQEECSGRRWNKLCTLNDSKGSLYSVKFAPAHLGLKLACLGNDGILRLYDALEPSDLRSWTLTSEMKVLSIPPANHLQSDFCLSWCPSRFSPEKLAVSALEQAIIYQRGKDGKLHVAAKLPGHKSLIRSISWAPSIGRWYQLIATGCKDGRIRIFKITEKLSPLASEESLTNSNMFDNSADVDMDAQGRSDSNTEEKAELQSNLQVELLSEHDDHNGEVWSVSWNLTGTILSSAGDDGKVRLWKATYSNEFKCMSVITAQQ
As to B1, the binding result in assay [1] was “binds”.

B2: Nup145C (natural protein, budding yeast (endogenous), UniProt P49687 606-1317, looked up)
chain: SIWGLVNEEDAEIDEDDLSKQEDGGEQPLRKVRTLAQSKPSDKEVILKTDGTFGTLSGKDDSIVEEKAYEPDLSDADFEGIEASPKLDVSKDWVEQLILAGSSLRSVFATSKEFDGPCQNEIDLLFSECNDEIDNAKLIMKERRFTASYTFAKFSTGSMLLTKDIVGKSGVSIKRLPTELQRKFLFDDVYLDKEIEKVTIEARKSNPYPQISESSLLFKDALDYMEKTSSDYNLWKLSSILFDPVSYPYKTDNDQVKMALLKKERHCRLTSWIVSQIGPEIEEKIRNSSNEIEQIFLYLLLNDVVRASKLAIESKNGHLSVLISYLGSNDPRIRDLAELQLQKWSTGGCSIDKNISKIYKLLSGSPFEGLFSLKELESEFSWLCLLNLTLCYGQIDEYSLESLVQSHLDKFSLPYDDPIGVIFQLYAANENTEKLYKEVRQRTNALDVQFCWYLIQTLRFNGTRVFSKETSDEATFAFAAQLEFAQLHGHSLFVSCFLNDDKAAEDTIKRLVMREITLLRASTNDHILNRLKIPSQLIFNAQALKDRYEGNYLSEVQNLLLGSSYDLAEMAIVTSLGPRLLLSNNPVQNNELKTLREILNEFPDSERDKWSVSINVFEVYLKLVLDNVETQETIDSLISGMKIFYDQYKHCREVAACCNVMSQEIVSKILEKNNPSIGDSKAKLLELPLGQPEKAYLRGEFAQDLMKCTYKI
With B2, in the assay with Nup84, the binding result was “binds”.

The values above are taken from article PMC2706296 (Nature structural & molecular biology, 2009).
